According to US11918683B2, “Treatment of immune diseases by administration of antigen-specific formulations” (Allero Therapeutics B.V., priority 2017, dated 2024):
Ends that are not written are not given here.

B1: Ovm: Ovm protein (ovomucoid) used as antigen (protein, UniProt P01005 25-210, looked up)
Ovomucoid: AEVDCSRFPNATDKEGKDVLVCNKDLRPICGTDGVTYTNDCLLCAYSIEFGTNISKEHDGECKETVPMNCSSYANTTSEDGKVMVLCNRAFNPVCGTDGVTYDNECLLCAHKVEQGASVDKRHDGGCRKELAAVSVDCSEYPKPDCTAEDRPLCGSDNKTYGNKCNFCNAVVESNGTLTLSHFGKC
B2: OVA: intact, LPS-free OVA grade V protein (ovalbumin) used as antigen (protein, UniProt P01012 2-386, looked up)
Ovalbumin: GSIGAASMEFCFDVFKELKVHHANENIFYCPIAIMSALAMVYLGAKDSTRTQINKVVRFDKLPGFGDSIEAQCGTSVNVHSSLRDILNQITKPNDVYSFSLASRLYAEERYPILPEYLQCVKELYRGGLEPINFQTAADQARELINSWVESQTNGIIRNVLQPSSVDSQTAMVLVNAIVFKGLWEKAFKDEDTQAMPFRVTEQESKPVQMMYQIGLFRVASMASEKMKILELPFASGTMSMLVLLPDEVSGLEQLESIINFEKLTEWTSSNVMEERKIKVYLPRMKMEEKYNLTSVLMAMGITDVFSSSANLSGISSAESLKISQAVHAAHAEINEAGREVVGSAEAGVDAASVSEEFRADHPFLFCIKHIATNAVLFFGRCVSP

Columns and labels:
[1] = system: NOD AB° DQ8 transgenic mice; test: Antigen-specific DTH response (ear swelling) after SLIT; type: in vivo; conditions: 10 μg DQ8d in ear, 24 hours, compared to PBS
Foxp3 = Foxp3 expression within CD4+ T cell population by FACS; type: cell-based, NOD AB° DQ8 transgenic mice; conditions: spleen
Experimental: Flow cytometric analysis: spleens and cervical lymph node tissue of SLIT treated mice were isolated, prepared as described above and stained for CD4, CD25 and Foxp3. Intracellular staining was performed for Foxp3 according to the manufacturer's instructions (eBiosciences) and subsequently measured using flow cytometry on a Becton Dickinson FACSCaliburs. Cells were gated on CD4^+CD25^+ and CD4^+CD25^− subpopulations and within these populations Foxp3 histograms were used to determine Mean Fluorescence Intensity (MFI).
T-cell phenotyping: CD4 and CD25 antibodies were purchased from BD Biosciences, and APC anti-Foxp3 staining kits were purchased from eBiosciences. Anti-IL-10 neutralizing monoclonal antibody (1 μg/mL, clone JES052A5), TGF-β neutralizing monoclonal antibody (1 μg/mL, clone 1D11) and LAP (latency associated peptide) neutralizing antibodies (1 μg/mL, clone 27235) were obtained from R&D systems.

[2] = system: OVA- or Ovm-sensitized piglets; test: Piglet food allergy model, oromucosal PSF patch treatment; type: in vivo, Landrace-Yorkshire piglets; conditions: oromucosal once weekly for 6 weeks
[3] = system: OVA- or HDM-sensitized mice; test: Sublingual immunotherapy (SLIT) mouse model; type: in vivo, BALB/cByJ mice; conditions: sublingual 5 days a week for 8 weeks
Experimental: Antigen: naturally purified Der p1 and 2 in a 50:1 ratio was purchased from Citeq or intact, LPS-free OVA grade V protein (Sigma Aldrich) was used as antigen in all experiments. Animals: BALB/cByJ mice were purchased from Charles River Laboratories at an age of 6 to 8 weeks and housed in individually ventilated cages (IVC). Sensitization of mice: all mice received intraperinoneal injections on day 1 and 15 of 5 μg crude extract […]) or 25 μg OVA adsorbed to 2.25 mg Alum (Imject, Pierce) in 100 μL PBS. […] Hereafter, airway responsiveness was determined, and bronchoalveolar lavage fluid (BALF), lungs, and blood were collected and stored for analyses. Measurement of airway hyperreactivity to methacholine: airway hyperresponsiveness (AHR) was assessed by measuring airway resistance (R in cmH2O.s/mL) and lung compliance (C in mL/H2O) in response to intravenous administration of increasing doses of methacholine (Sigma-Aldrich). The AHR was expressed as the effective dose of methacholine required to induce a R of 3 cmH2O.s/mL (ED3). […] ELISA determined the concentrations of IL-5, IL-10, IL-13 and IFN-γ, according to the manufacturer's instructions (BD Pharmingen). […]

Molecule	DTH response (ear swelling) [1]	number of Foxp3 CD4+ T cells (Foxp3)	AHR [2]	AHR [3]
deaminated DQ8d peptide GAPVPYPDPLEPRQYPSGEGSFQPSQENPQA (also: deaminated (sites not given here)) [deaminated gliadin peptide antigen]	slight reduction	did not show a significant increase		
B1			only a moderate effect	
B2			only a moderate effect	only a moderate effect
